Results as given in US11535824B2, “Nuclear transfer” (Sung Kwang Medical Foundation, priority 2015, dated 2022).

Key:
cancer models = details: variety of in vitro and in vivo cancer models; cited from earlier work
[1] = tested on: primary human fibroblasts; details: without MYC or KLF4; cited from earlier work
H4R3 = details: cited from earlier work
SCNT-generated embryos = details: cited from earlier work
adult stem cells = details: cited from earlier work
[2] = tested on: mouse embryos obtained from SCNT; assay: CPP-CARM1 protein treatment of 8-cell SCNT embryos; development to blastocyst; format: cell-based; details: for % of developed to BLs: calculated from 2 cell cleavaged embryos
Procedure: The above preliminary results were extended in further studies utilizing protein treatment. SCNT oocytes were cultured with protein of CARM1 on third day after formation of fertilized embryo to investigate the influence on the development rate into blastocyst. Specifically, mouse embryos obtained from SCNT were cultured to 8-cell stage in embryo culture medium (potassium simplex-optimized medium, KSOM; Millipore, Danvers, Mass.) containing 10% SPS (Sage, Trumbull, Conn.). And then, 8-cell embryos were cultured at 37° C. and 5% CO2 for 48 h in embryo culture medium with 2 μg/ml CPP-CARM1 recombinant protein or DsRed protein (control—non-functional protein) under mineral oil (Sage). Embryonic development was monitored for a further 2 days. CARM1 or DsRed cDNA was inserted into a pET vector to construct an expression plasmid for CARM1 conjugated to 7× arginine (a cell-penetrating peptide (CPP) domain) and a 6×His-tag. The CPP-CARM1 protein expression vector was transformed into BL21 (DE3) pLysS-competent cells (Stratagene Inc., La Jolla, Calif.). Transformed cells were cultured and induced by 1 mM isopropyl-1-thio-β-D-galactopyranoside (IPTG) for 8 h at 20° C. to produce the CPP-CARM1 or DsRed proteins.

Q: With CC(C)N(C[C@H]1O[C@@H](n2cnc3c(N)ncnc32)[C@H](O)[C@@H]1O)[C@H]1C[C@@H](CCc2nc3cc(C(C)(C)C)ccc3[nH]2)C1 [EPZ5676] as the molecule, how does the anticancer chemotherapeutic activity (cancer models) read?
A: exhibit anticancer chemotherapeutic activity

Q: Which anticancer chemotherapeutic activity (cancer models) does the source give for Cc1cc(C)c(CNC(=O)c2cc(-c3ccc(CN4CCOCC4)cc3)cc3c2cnn3C2CCCC2)c(=O)[nH]1 [EPZ005687] here?
A: exhibit anticancer chemotherapeutic activity

Q: Which anticancer chemotherapeutic activity (cancer models) does the source give for CC[C@H](C)n1cc(C)c2c(C(=O)NCc3c(C)cc(C)[nH]c3=O)cc(-c3ccc(N4CCNCC4)nc3)cc21 [GSK126] here?
A: exhibit anticancer chemotherapeutic activity

Q: Which “reprogramming with two factors, OCT4 and SOX2” value [1] does the source give for CCCC(CCC)C(=O)O [Valproic acid] here?
A: enables the reprogramming

Q: For Nc1ccc(S(=O)(=O)c2ccc(NCN3C(=O)NC(=O)C(=O)C3=O)cc2)cc1 [allantodapsone], which “methylation at H4R3” value (H4R3) is on record?
A: hypomethylation

Q: With CC(/C=C/C(=O)NO)=C\[C@@H](C)C(=O)c1ccc(N(C)C)cc1 [trichostatin A] as the molecule, how does the “chromosome decondensation and nuclear volume” value (SCNT-generated embryos; SCNT-generated embryos) read?
A: increase

Q: And the cloning efficiency (SCNT-generated embryos; additive in nuclear transfer)?
A: improve cloning efficiency

B1: coactivator-associated arginine methyltransferase 1 (protein, UniProt Q86X55 2-608, looked up)
Histone-arginine …: AAAAAAVGPGAGGAGSAVPGGAGPCATVSVFPGARLLTIGDANGEIQRHAEQQALRLEVRAGPDSAGIALYSHEDVCVFKCSVSRETECSRVGKQSFIITLGCNSVLIQFATPNDFCSFYNILKTCRGHTLERSVFSERTEESSAVQYFQFYGYLSQQQNMMQDYVRTGTYQRAILQNHTDFKDKIVLDVGCGSGILSFFAAQAGARKIYAVEASTMAQHAEVLVKSNNLTDRIVVIPGKVEEVSLPEQVDIIISEPMGYMLFNERMLESYLHAKKYLKPSGNMFPTIGDVHLAPFTDEQLYMEQFTKANFWYQPSFHGVDLSALRGAAVDEYFRQPVVDTFDIRILMAKSVKYTVNFLEAKEGDLHRIEIPFKFHMLHSGLVHGLAFWFDVAFIGSIMTVWLSTAPTEPLTHWYQVRCLFQSPLFAKAGDTLSGTCLLIANKRQSYDISIVAQVDQTGSKSSNLLDLKNPFFRYTGTTPSPPPGSHYTSPSENMWNTGSTYNLSSGMAVAGMPTAYDLSSVIASGSSVGHNNLIPLANTGIVNHTHSRMGSIMSTGIVQGSSGAQGSGGGSTSAHYAVNSQFTMGGPAISMASPMSIPTNTMHYGS
notes: member of the protein arginine methyltransferase (PRMT) family
Q: Which “expression of Oct-4, Sox-2 and nanog” value (adult stem cells) does the source give for B1 here?
A: upregulated

Q: And the “No. of developed to BLs” value ([2]; Total of three experiments)?
A: 26

Q: What about the “% of developed to BLs” value ([2]; Total of three experiments) of the same molecule?
A: (38.2) %

Q: What about the “% of developed to BLs” value ([2]; experiment 1) of the same molecule?
A: (46.2) %

Q: And the “No. of developed to BLs” value ([2]; experiment 1, treatment D 3, cumulus donor cell, KSOM)?
A: 12

Q: And the “% of developed to BLs” value ([2]; experiment 2)?
A: (40) %

Q: And the “No. of developed to BLs” value ([2]; experiment 2, treatment D 3, cumulus donor cell, KSOM)?
A: 10

Q: What about the “% of developed to BLs” value ([2]; experiment 3) of the same molecule?
A: (23.5) %

Q: What about the “No. of developed to BLs” value ([2]; experiment 3, treatment D 3, cumulus donor cell, KSOM) of the same molecule?
A: 4
